Data as given in patent US20080235826.

Tests used:
[1] = biological target: T1, purified oat phytochrome A, autophosphorylated (UniProt P06593)
T1 sequence: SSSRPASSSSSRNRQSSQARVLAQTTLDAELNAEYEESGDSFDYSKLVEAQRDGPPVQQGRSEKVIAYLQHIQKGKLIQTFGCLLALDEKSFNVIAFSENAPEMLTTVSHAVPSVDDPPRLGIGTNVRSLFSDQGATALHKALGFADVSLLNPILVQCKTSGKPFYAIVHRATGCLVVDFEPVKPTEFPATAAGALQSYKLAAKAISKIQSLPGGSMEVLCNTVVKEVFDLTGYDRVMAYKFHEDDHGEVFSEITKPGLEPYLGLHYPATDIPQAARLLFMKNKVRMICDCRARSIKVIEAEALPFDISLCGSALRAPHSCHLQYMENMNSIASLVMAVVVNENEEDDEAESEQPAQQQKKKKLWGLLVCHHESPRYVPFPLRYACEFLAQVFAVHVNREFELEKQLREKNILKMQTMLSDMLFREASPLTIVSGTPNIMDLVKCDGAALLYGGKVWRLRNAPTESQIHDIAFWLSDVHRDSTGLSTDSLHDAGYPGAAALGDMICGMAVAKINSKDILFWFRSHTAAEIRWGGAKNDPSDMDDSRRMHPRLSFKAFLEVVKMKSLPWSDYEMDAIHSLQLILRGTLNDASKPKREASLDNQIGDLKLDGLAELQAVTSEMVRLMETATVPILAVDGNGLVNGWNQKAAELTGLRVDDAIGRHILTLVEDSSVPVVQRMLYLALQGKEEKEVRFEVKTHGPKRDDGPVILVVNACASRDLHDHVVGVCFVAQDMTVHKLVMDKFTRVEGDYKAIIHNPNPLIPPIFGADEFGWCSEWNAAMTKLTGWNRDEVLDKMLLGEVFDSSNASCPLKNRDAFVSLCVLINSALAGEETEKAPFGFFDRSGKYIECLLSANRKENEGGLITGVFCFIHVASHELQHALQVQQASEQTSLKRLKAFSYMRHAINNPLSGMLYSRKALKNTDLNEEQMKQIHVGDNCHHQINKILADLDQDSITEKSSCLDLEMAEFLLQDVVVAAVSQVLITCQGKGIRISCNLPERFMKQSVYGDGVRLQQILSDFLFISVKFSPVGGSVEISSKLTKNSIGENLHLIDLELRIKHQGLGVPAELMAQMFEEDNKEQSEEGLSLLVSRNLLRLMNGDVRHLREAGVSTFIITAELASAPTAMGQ

[2] = biological target: T2, purified oat phytochrome A, autophosphorylated, P06593
T2 chain: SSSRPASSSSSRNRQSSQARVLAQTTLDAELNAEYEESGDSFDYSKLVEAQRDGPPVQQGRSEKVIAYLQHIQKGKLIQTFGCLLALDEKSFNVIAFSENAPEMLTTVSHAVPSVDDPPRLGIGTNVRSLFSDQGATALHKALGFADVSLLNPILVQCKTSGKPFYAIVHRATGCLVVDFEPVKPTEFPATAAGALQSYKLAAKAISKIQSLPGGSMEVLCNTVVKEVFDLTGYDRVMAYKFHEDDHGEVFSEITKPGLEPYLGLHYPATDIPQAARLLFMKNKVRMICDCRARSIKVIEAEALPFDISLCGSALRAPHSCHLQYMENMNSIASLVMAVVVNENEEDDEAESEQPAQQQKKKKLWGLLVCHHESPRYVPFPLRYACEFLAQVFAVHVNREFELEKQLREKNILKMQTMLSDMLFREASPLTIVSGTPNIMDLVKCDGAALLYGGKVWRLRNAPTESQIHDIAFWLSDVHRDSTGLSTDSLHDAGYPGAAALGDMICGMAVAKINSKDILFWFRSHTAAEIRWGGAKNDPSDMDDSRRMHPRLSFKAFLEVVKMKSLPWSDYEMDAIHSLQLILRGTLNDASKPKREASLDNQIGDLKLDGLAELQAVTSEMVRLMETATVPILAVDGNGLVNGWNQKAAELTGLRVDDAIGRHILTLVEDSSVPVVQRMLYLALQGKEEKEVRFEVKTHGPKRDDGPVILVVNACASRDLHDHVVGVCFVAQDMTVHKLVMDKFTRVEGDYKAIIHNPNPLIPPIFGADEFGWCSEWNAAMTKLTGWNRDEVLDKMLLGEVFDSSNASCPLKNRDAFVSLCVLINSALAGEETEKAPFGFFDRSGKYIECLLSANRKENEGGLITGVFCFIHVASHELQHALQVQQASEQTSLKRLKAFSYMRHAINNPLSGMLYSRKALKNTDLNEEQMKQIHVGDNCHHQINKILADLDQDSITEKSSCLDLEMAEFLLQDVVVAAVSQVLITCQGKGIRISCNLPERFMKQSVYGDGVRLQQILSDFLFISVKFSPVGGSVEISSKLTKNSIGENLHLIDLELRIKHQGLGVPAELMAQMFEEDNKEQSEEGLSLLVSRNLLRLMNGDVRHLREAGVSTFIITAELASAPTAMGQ

[3] = biological target: T3, Arabidopsis thaliana phytochrome A (PHYA), full-length, yeast two-hybrid fusion
T3 chain: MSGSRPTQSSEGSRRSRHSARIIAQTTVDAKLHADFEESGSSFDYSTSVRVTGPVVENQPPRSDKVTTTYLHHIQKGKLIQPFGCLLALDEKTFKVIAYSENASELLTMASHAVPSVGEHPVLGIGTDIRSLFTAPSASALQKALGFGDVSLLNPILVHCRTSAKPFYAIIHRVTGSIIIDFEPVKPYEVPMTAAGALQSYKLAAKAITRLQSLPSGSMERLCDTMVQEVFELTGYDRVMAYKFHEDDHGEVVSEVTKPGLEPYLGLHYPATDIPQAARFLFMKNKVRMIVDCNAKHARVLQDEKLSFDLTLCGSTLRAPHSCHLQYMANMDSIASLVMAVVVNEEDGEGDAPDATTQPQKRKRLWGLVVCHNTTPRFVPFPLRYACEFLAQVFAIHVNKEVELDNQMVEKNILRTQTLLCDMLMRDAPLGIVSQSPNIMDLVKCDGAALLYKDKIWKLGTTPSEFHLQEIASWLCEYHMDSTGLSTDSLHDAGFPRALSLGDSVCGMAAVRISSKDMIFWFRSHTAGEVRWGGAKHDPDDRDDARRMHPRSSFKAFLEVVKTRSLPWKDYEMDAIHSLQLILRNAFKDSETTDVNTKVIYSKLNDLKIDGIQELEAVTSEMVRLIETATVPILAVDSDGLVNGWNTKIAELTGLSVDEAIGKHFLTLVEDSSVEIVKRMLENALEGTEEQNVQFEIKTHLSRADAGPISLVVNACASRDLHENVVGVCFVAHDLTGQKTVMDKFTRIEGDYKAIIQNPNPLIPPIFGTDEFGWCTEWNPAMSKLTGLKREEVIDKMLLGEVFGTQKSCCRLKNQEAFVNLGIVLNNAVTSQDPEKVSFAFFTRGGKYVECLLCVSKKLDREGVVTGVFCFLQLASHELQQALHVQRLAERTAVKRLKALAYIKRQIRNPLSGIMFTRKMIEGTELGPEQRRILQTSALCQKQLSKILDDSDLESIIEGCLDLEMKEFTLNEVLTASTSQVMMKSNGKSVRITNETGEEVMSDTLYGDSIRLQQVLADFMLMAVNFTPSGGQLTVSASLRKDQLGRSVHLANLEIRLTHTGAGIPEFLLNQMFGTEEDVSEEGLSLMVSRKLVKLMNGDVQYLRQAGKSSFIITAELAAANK

[4] = biological target: Arabidopsis thaliana phytochrome B (PHYB), full-length, yeast two-hybrid bait in pGilda, P14713
Arabidopsis thaliana phytochrome B (PHYB), full-length, yeast two-hybrid bait in pGilda, P14713, sequence (P14713 whole entry): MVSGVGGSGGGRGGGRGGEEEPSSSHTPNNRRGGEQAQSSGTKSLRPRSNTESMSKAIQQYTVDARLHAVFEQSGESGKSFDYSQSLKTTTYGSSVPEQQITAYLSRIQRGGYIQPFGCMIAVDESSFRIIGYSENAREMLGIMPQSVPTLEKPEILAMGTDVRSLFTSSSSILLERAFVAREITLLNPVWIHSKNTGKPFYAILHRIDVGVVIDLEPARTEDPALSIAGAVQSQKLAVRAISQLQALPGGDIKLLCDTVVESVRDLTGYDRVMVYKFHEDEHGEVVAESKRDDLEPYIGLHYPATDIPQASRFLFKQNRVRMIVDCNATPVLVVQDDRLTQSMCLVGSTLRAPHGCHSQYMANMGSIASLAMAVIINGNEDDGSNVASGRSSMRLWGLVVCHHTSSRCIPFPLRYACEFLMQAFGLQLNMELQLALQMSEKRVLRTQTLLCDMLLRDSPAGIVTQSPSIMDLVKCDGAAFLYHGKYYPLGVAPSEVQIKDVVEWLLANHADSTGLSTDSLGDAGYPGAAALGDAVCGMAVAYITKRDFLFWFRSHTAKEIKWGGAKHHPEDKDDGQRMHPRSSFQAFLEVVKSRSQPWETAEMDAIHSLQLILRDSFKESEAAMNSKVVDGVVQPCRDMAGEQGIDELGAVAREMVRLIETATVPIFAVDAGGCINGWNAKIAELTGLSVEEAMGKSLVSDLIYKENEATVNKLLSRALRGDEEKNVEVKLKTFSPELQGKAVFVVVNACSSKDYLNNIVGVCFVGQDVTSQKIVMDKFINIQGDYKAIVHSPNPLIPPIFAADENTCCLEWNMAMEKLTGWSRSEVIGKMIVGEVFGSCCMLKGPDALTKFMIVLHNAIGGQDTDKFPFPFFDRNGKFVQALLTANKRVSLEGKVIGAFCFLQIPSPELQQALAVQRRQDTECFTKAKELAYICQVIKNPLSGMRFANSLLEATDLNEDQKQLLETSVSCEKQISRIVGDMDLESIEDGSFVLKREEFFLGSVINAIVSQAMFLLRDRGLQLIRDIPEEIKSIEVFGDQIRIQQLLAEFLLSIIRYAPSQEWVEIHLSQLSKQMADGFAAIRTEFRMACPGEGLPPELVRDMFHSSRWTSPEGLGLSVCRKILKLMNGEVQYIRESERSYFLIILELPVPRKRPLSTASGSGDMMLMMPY

Molecule: GST-PP2Ac (fusion protein of GST and the PP2A catalytic domain of PAPP5, with a deletion of amino acids 1-138 of SEQ ID NO: 4)
- dephosphorylation of autophosphorylated oat Pfr phytochrome A (32P autoradiography) [1]: the level of dephosphorylation was very low

B1: GST-PAPP5 fusion protein (glutathione-S-transferase fused to full-length PAPP5) (protein)
chain: METKNENSDVSRAEEFKSQANEAFKGHKYSSAIDLYTKAIELNSNNAVYWANRAFAHTKLEEYGSAIQDASKAIEVDSRYSKGYYRRGAAYLAMGKFKDALKDFQQVKRLSPNDPDATRKLKECEKAVMKLKFEEAISVPVSERRSVAESIDFHTIEVEPQYSGARIEGEEVTLDFVKTMMEDFKNQKTLHKRYAYQIVLQTRQILLALPSLVDISVPHGKHITVCGDVHGQFYDLLNIFELNGLPSEENPYLFNGDFVDRGSFSVEIILTLFAFKCMCPSSIYLARGNHESKSMNKIYGFEGEVRSKLSEKFVDLFAEVFCYLPLAHVINGKVFVVHGGLFSVDGVKLSDIRAIDRFCEPPEEGLMCELLWSDPQPLPGRGPSKRGVGLSFGGDVTKRFLQDNNLDLLVRSHEVKDEGYEVEHDGKLITVFSAPNYCDQMGNKGAFIRFEAPDMKPNIVTFSAVPHPDVKPMAYANNFLRMFN
- dephosphorylation of autophosphorylated oat Pfr phytochrome A (32P autoradiography) [2]: only GST-PAPP5 dephosphorylated the autophosphorylated oat Pfr phytochrome A by about 80%
- dephosphorylation of autophosphorylated oat phytochrome A according to its light absorption form [2]: the dephosphorylation by PAPP5 was higher in Pfr phytochrome than that in Pf phytochrome

B2: B42-PP2Ac (TPR domain-deleted PP2A catalytic domain of PAPP5, yeast two-hybrid prey) (protein)
chain: VPVSERRSVAESIDFHTIEVEPQYSGARIEGEEVTLDFVKTMMEDFKNQKTLHKRYAYQIVLQTRQILLALPSLVDISVPHGKHITVCGDVHGQFYDLLNIFELNGLPSEENPYLFNGDFVDRGSFSVEIILTLFAFKCMCPSSIYLARGNHESKSMNKIYGFEGEVRSKLSEKFVDLFAEVFCYLPLAHVINGKVFVVHGGLFSVDGVKLSDIRAIDRFCEPPEEGLMCELLWSDPQPLPGRGPSKRGVGLSFGGDVTKRFLQDNNLDLLVRSHEVKDEGYEVEHDGKLITVFSAPNYCDQMGNKGAFIRFEAPDMKPNIVTFSAVPHPDVKPMAYANNFLRMFN
- beta-galactosidase activity in Miller units (quantitative yeast two-hybrid) [3]: showed a remarkable reduction in the activity of interaction with phytochromes
- beta-galactosidase activity in Miller units (quantitative yeast two-hybrid) [4]: showed a remarkable reduction in the activity of interaction with phytochromes
